Experimental data as given in publication PMC3026807.

Target: Arg224 (UniProt position 224, YHALYRYFVEL)
Assay: electrophysiology

In the case of “TASK-2 (K2P5.1, KCNK5) two-pore-domain potassium channel (Mus musculus)”, the pKa (pHo-gated channel, closed to open on alkalinization, non-concatenated WT, cited from earlier work) is listed as 8.0.

With “TASK-2 WT-WT concatenated tandem dimer (Mus musculus; deletion of the C-terminal 148 residues (after V354) in the first protomer; insertion of L355-D356 linker; no substitution at R224 in either protomer)” the pKa (Bath (mM): 67.5 Na2SO4, 4 KCl, 1 K gluconate, 2 CaCl2, 1 MgCl2, 105 sucrose (standard solution). The article does not state explicitly which bath was used for Figure 5. Pipette: 140 mM KCl., 10 mM Hepes/Tris, MES for pH 5.0-6.5, AMPSO for pH 8.5-9.0, CAPS for pH 9.5-11.0, concatenated WT-WT channel, pHo gating) was 8.2±0.15.
